Experimental data: patent US20230257458A1

What was measured:
[1] = target: IL-11 protein (UniProt P20809); test: ELISA, purchased IL-11 antibody (Abcam, ab130083) on IL-11, positive control
[2] = target: IL-11-Fc protein (UniProt P20809); test: competition ELISA: IL-11R-His coated, IL-11-Fc co-incubated with a concentration gradient of the antibody, detection with HRP goat anti-IgG-Fc; blocked partner IL-11R-His
Sequence of IL-11-Fc protein (P20809 22-199 limits assumed): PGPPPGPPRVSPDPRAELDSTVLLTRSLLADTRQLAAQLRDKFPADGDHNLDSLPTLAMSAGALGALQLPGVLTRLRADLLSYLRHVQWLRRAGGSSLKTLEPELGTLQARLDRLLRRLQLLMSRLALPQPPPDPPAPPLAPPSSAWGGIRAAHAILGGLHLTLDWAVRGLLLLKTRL

Sequence of IL-11 protein (P20809 22-199 limits assumed): as above

OD(450 nm) value [1]: 3.62 | IC50 (read off the curve) [2]: 1 µg/mL
Substance: 6D9A1 (Abcam, ab130083) (antibody)
